Experimental data: paper PMC10201443, “Site-directed biochemical analyses reveal that the switchable C-terminus of Rpc31 contributes to RNA polymerase III transcription initiation” (Nucleic Acids Research, 2022)

T1: Full-length Rpc34 protein with an N-terminal V5 epitope tag, Alexa 647-labeled (S. cerevisiae, UniProt P32910 1-317, Alexa Fluor 647 NHS Ester label (labeling efficiency ~0.8))
T1 construct: Rpc34 of S. cerevisiae, full-length protein; also called Alexa647-labeled Rpc34; fluorescently-labeled Rpc34 protein; source: E. coli BL21 (DE3) RIL, purified (Ni-Sepharose, SUMO tag removed with Ulp1, second Ni-Sepharose passage)
T1 sequence (looked up): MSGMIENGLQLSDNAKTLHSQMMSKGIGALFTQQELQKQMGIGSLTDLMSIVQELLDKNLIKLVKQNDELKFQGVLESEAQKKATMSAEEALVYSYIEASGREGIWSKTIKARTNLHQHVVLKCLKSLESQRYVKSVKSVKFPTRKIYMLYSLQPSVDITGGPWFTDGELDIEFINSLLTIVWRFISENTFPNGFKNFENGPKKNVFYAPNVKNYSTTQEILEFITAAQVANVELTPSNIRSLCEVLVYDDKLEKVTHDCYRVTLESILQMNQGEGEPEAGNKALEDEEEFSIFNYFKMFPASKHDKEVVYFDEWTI

T2: Rpc31(aa 121–251)_Flag_ΔS151-G164 (S. cerevisiae, UniProt P17890 121-251, ΔS151-G164)
T2 sequence: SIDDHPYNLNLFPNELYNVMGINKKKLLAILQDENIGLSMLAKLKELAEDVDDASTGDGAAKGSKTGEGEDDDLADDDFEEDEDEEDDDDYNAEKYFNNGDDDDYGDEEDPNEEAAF

B1: Full-length Rpc34 protein with an N-terminal V5 epitope tag, Alexa 647-labeled (natural protein)
chain: MSGMIENGLQLSDNAKTLHSQMMSKGIGALFTQQELQKQMGIGSLTDLMSIVQELLDKNLIKLVKQNDELKFQGVLESEAQKKATMSAEEALVYSYIEASGREGIWSKTIKARTNLHQHVVLKCLKSLESQRYVKSVKSVKFPTRKIYMLYSLQPSVDITGGPWFTDGELDIEFINSLLTIVWRFISENTFPNGFKNFENGPKKNVFYAPNVKNYSTTQEILEFITAAQVANVELTPSNIRSLCEVLVYDDKLEKVTHDCYRVTLESILQMNQGEGEPEAGNKALEDEEEFSIFNYFKMFPASKHDKEVVYFDEWTI
modifications: Alexa Fluor 647 NHS Ester label (labeling efficiency ~0.8)

How the values were obtained:
[1] = molecular target: T1, Full-length Rpc34 protein with an …; assay: MST; Alexa647-labeled Rpc34 constant at 5 nM, unlabeled Rpc31 peptides titrated (WT 1.16 μM to 0.000035 μM); 5 mM sodium phosphate pH 8.0, 0.05% Tween 20; 25°C; MST-on time 5 s; three independent measurements; conditions: both partners purified
[2] = molecular target: B1; assay: MST
[3] = molecular target: T2, Rpc31(aa 121–251)_Flag_ΔS151-G164; assay: MST

Kd [1] [µM] | Kd [2] [µM] | Binder | other results
0.883 ± 0.339 | – | Rpc31(aa 121–251)_Flag (domain or fragment, S. cerevisiae, UniProt P17890 121-251, looked up, Rpc31 of S. cerevisiae, C-terminal aa 121-251; also called Rpc31 C-terminal Ser121-Phe251 peptide; Rpc31 (aa 121–251) peptide; source: E. coli BL21 (DE3) RIL, purified (Ni-Sepharose, SUMO tag removed with Ulp1, second Ni-Sepharose passage, Source15Q); not shown: FLAG, C-terminal, kept) SIDDHPYNLNLFPNELYNVMGINKKKLLAISKFNNADDVFTGTGLQDENIGLSMLAKLKELAEDVDDASTGDGAAKGSKTGEGEDDDLADDDFEEDEDEEDDDDYNAEKYFNNGDDDDYGDEEDPNEEAAF | –
8.5 ± 5.6 | – | Rpc31(aa 121–251)_Flag_E183K (domain or fragment, S. cerevisiae, UniProt P17890 121-251, looked up, Rpc31 of S. cerevisiae, C-terminal aa 121-251 with E183K; the methods describe only the wild-type construct; also called Rpc31 peptide with a Glu183Lys (E183K) point mutation; source: E. coli, recombinantly expressed and purified; not shown: FLAG, C-terminal, kept) SIDDHPYNLNLFPNELYNVMGINKKKLLAISKFNNADDVFTGTGLQDENIGLSMLAKLKELAKDVDDASTGDGAAKGSKTGEGEDDDLADDDFEEDEDEEDDDDYNAEKYFNNGDDDDYGDEEDPNEEAAF | –
– | 1.2 | Rpc31(121-251)-Flag_ΔL165-V185 (protein) SIDDHPYNLNLFPNELYNVMGINKKKLLAISKFNNADDVFTGTGDDASTGDGAAKGSKTGEGEDDDLADDDFEEDEDEEDDDDYNAEKYFNNGDDDDYGDEEDPNEEAAF | –
– | 4.4 | Rpc31(121-251)-Flag_ΔG141-I150 (protein) SIDDHPYNLNLFPNELYNVMSKFNNADDVFTGTGLQDENIGLSMLAKLKELAEDVDDASTGDGAAKGSKTGEGEDDDLADDDFEEDEDEEDDDDYNAEKYFNNGDDDDYGDEEDPNEEAAF | –
– | – | B1 | Kd [3]: 6.1 µM
